Positions of bridges follow the written chain, without caps; N, C: chain ends. No end group written: not given here. *: point of attachment. NHNH2 = NN*
T1: native human factor VIII (nhfVIII) (human, UniProt P00451 20-2351)
T1 chain 1: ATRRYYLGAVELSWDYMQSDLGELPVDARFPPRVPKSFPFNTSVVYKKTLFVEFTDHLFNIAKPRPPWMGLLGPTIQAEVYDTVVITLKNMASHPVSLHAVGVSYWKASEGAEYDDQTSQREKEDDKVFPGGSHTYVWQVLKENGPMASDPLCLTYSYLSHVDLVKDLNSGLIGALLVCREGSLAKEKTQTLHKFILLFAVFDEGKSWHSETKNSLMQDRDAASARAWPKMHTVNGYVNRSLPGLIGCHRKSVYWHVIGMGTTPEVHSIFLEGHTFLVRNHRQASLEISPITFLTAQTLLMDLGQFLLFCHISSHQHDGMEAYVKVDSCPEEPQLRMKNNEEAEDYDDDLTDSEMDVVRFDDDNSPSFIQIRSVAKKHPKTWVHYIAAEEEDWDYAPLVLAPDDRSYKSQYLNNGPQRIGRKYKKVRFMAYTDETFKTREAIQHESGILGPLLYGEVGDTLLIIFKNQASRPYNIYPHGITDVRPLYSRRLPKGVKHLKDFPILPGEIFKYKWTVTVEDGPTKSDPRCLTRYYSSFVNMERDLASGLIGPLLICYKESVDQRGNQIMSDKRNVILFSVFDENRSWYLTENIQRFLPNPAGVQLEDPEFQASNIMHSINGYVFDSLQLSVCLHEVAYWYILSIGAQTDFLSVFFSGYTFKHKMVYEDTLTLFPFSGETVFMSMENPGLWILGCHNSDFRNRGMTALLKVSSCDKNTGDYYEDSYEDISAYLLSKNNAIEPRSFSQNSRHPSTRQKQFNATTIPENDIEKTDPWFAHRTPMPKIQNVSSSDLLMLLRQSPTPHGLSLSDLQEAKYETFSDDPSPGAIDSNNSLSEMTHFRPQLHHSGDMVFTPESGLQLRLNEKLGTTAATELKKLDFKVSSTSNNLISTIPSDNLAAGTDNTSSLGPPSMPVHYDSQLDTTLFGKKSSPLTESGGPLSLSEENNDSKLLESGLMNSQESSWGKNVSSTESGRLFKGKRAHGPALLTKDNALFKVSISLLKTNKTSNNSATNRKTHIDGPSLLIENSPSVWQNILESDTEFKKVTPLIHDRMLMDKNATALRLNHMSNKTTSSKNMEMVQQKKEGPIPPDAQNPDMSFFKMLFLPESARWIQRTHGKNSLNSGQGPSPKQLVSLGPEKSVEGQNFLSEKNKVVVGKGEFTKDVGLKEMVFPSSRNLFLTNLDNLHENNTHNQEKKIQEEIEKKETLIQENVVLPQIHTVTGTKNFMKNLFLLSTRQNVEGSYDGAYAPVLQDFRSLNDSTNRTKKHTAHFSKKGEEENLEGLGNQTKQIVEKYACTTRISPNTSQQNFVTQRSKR
T1 chain 2: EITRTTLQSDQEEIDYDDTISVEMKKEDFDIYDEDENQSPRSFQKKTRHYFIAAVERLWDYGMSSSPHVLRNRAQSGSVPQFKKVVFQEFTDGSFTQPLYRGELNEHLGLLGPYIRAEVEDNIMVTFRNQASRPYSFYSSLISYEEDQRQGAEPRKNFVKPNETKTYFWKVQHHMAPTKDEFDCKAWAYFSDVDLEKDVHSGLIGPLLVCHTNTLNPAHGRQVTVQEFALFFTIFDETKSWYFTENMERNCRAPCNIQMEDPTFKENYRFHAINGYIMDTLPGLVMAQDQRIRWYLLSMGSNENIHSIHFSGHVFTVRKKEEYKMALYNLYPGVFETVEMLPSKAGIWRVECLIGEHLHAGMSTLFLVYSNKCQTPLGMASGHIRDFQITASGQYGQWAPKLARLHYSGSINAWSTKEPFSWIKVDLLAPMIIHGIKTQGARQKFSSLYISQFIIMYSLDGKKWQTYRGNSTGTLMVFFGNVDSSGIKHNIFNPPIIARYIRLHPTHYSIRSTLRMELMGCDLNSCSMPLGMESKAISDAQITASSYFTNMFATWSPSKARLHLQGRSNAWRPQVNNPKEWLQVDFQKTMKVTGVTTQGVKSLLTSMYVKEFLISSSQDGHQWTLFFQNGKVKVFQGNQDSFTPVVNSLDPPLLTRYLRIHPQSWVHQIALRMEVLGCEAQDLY


Target: T1, native human factor VIII (nhfVIII)
Assay: batch binding to peptide beads; fractions by sandwich ELISA; % of total recovered

Binder	% of total recovered in Eluate	% of total recovered in Unbound	% of total recovered in Wash
AEGTGDHLCGAWFRPCDADPGPEGGGS-NHNH2 (disulfide 9-16, synthetic peptide immobilized on Toyopearl Formyl 650-M resin by hydrazone bond) [CS-454 (AEGTGDHLCGAWFRPCDADPGPEGGGS-NHNH2)]	21%	67%	12%
AEGTGDFGCSWLFPCPFDPGPEGGGS-NHNH2 (disulfide 9-15, synthetic peptide immobilized on Toyopearl Formyl 650-M resin by hydrazone bond) [CS-456 (AEGTGDFGCSWLFPCPFDPGPEGGGS-NHNH2)]	16%	70%	14%
AEGTGDFCWVFAFDHCHDPGPEGGGS-NHNH2 (disulfide 8-16, synthetic peptide immobilized on Toyopearl Formyl 650-M resin by hydrazone bond) [CS-458 (AEGTGDFCWVFAFDHCHDPGPEGGGS-NHNH2)]	39%	48%	13%

From patent US20120045819A1 (published 2012)
